# Data: IntAct's records for PubMed 25946333
# B1: Nuclear envelope integral membrane protein 1 (Mus musculus), Q6ZQE4 (parent)
# chain: MAGGIKVSVWSAVGPGPRCWGAGGGGGATWLLLVVAGCVVCGSADVNVVMLQESQVDMNSSQQFCYKNVLIPKWHDIWTRIQVRVNSSKLVRVTQVDNEEKLKELEQFSIWNFFSSFLKEKLNDTYVNVGLYSTKTCLKVEMIEKDTTYSVTVTRRFDPKLFLVFLLGLTLFFCGDLLSRSQIFYYSTGMSVGIVASLLIVIFMISKFMPKRSPIYVILVGGWSFSLYLIQLVFKNLQEIWRSYWHYLLSYILTVGFMSFAVCYKYGPLENERSINLLTWTLQLLGLGLMYSSIQIPHVAFALIVIALCTKNLEYPIHWLCSTYRRMCKASGKPVPPRLLTEEEYRIQGEVETQKALQELREFCNSPECSAWKTISRIQSPKRFADFVEGSFHLTPNEVSVHEQEYGLGSIFTQDEELSSEEEGSEYPTFTQNNFLT
# Variants of: B1
# Details: with ran_mouse Ran
row,Variant,effect of a mutation on the interaction
1,S366E;S376E;S380E;S419E;S420E,disrupting interaction strength
2,S366A;S376A;S380A;S419A;S420A,disrupting interaction strength
